Assay results: publication PMC9337809 (Brain, 2022)

Key:
Assay in all cases: ELISA
[1] = target: Aβ(1–28), synthetic, aggregated in the presence of Ca2+ (Homo sapiens, UniProt P05067)
[2] = target: α-synuclein protein aggregates (Homo sapiens, UniProt P37840)
[3] = target: SOD protein aggregates (Homo sapiens (assumed), UniProt P00441)
Sequence of SOD protein aggregates (P00441 whole entry): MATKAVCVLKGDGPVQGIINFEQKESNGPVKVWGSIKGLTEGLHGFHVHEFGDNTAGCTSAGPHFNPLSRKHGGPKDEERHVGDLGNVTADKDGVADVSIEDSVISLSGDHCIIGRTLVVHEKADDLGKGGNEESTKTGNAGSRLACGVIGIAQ

Sequence of Aβ(1–28), synthetic, aggregated in the presence of Ca2+ (P05067 672-699): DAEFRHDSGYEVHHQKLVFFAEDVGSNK

| binding result [1] | binding result [2] | binding result [3] | Binder |
| --- | --- | --- | --- |
| binds | no binding | no binding | B24, human monoclonal antibody raised against synthetic oligomeric amyloid-β (antibody, V domains shown) VH: EVQLLESGGGLVQPGGSLRLSCAASGFTFSSYAMTWVRQAPGEGLEWVSTISGSGIRTYYADSVKGRFTISRDNSKNTMYLQMNSLRAEDTAVYYCAKDGLTGDRRWYFDLWGRGTLVTVSS VL: EIVMTQSPATLSLSPGERATLSCRASQSVSSSYFSWYQQKPGQAPRLLIYGASTRATGIPARFSGSGSGTDFTLTISSLQPEDFAVYYCQQDSNLPLTFGGGTKVEIK |
| – | no binding | no binding | B28, human monoclonal antibody raised against synthetic oligomeric amyloid-β (antibody, V domains shown) VH: QVQLVESGGGVVQPGRSVRLSCAATGFTFSSYGMHWVRQAPGKGLEWVAVIWFDGSNEYYADSVRGRFTISRDNSKNTLYLQMNSLRAEDTAVYYCARRGRVGVTRNYYYYNMDVWGQGTTVTVSS VL: AIQMTQSPSSLSASVGDRVTITCRASQGIRNDLGWFQQKPGKAPKLLIYPASSLQSGVPSRFSGSGSDTDFTLTISSLQPEDFATYYCLQDYNFPFTFGPGTKVDIK |
